The target of one experiment is T1, ScpA_(S512A,E864A) (Streptococcus pyogenes, UniProt P15926 31-1032, S512A | E864A).
T1 construct: Made by QuikChange II from pGEX ScpA(31-1032); also called E864A_(S512A); source: details in Supplemental Information SI1 and SI2
T1 sequence (looked up): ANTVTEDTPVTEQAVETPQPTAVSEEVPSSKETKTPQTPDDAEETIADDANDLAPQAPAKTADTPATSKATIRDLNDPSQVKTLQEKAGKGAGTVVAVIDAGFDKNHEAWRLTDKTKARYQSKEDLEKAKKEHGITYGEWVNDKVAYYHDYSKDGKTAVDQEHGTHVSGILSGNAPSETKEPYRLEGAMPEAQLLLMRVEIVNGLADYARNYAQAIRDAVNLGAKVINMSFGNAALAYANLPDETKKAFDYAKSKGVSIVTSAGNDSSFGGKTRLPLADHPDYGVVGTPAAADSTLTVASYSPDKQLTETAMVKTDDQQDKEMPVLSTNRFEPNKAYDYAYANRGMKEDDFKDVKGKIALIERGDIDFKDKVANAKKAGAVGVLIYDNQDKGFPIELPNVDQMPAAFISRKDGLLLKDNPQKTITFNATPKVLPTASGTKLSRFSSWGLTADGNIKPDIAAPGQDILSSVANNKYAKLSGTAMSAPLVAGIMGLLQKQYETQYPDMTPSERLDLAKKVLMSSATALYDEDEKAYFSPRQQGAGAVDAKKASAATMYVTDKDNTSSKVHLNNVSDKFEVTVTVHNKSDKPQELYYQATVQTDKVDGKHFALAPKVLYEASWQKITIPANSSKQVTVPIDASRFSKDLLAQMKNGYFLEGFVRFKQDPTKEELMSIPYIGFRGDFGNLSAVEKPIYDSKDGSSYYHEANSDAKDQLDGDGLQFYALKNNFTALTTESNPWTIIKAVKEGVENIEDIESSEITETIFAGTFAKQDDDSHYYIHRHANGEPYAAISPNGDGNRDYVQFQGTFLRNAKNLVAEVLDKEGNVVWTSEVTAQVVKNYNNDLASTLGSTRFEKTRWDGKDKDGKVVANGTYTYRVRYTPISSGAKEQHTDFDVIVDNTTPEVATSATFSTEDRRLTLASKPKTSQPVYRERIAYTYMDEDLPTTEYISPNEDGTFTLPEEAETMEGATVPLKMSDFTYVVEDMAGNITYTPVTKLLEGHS
The experiment can be described thus: SPR; BIAcore X100, NTA sensor chip with about 20-25 RU of immobilised His-tagged C5a form (ligand), ScpA form flowed as ligate at 30 uL/min, 25 °C, 10 mM Hepes-KOH pH 7.4, 150 mM NaCl, 0.005% Tween 20, 50 uM EDTA; global fit, 1:1 Langmuir model with drifting baseline; triplicate. The conditions noted are these: both partners purified. A general note: In SPR one partner is held on a chip, and binding of the other changes the refractive index at the surface.

A further experiment has as its target T2, ScpA_(S512A,D889A) (Streptococcus pyogenes, UniProt P15926 31-1032, S512A | D889A).
T2 construct: Made by QuikChange II from pGEX ScpA(31-1032); also called D889A_(S512A); source: details in Supplemental Information SI1 and SI2
T2 sequence (looked up): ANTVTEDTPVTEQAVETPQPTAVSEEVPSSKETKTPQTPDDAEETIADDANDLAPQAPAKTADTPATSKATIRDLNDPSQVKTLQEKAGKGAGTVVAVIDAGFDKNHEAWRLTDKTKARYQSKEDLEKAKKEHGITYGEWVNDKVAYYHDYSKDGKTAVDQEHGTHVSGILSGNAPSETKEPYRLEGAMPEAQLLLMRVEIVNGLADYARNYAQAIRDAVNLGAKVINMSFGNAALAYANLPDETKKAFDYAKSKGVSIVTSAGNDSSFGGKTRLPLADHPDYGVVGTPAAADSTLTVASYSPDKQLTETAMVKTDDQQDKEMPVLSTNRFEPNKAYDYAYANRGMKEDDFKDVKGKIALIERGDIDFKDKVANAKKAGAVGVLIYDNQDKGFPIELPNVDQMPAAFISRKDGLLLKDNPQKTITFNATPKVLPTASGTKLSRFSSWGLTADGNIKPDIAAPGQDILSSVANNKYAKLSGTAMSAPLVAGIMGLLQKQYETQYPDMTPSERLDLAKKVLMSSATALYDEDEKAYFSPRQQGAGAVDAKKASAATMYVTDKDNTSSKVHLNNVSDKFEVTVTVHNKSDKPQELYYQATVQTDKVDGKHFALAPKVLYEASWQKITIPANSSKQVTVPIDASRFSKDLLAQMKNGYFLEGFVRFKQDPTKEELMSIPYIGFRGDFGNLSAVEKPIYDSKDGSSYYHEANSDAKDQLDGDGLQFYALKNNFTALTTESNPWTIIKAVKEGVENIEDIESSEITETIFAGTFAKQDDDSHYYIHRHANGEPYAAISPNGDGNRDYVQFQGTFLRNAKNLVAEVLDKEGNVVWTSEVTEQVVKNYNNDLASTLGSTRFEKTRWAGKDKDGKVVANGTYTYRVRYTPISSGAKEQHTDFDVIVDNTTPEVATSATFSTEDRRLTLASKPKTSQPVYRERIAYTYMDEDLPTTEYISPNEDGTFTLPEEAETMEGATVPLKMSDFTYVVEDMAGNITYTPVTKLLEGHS
Described as above. The conditions noted are these: both partners purified.

As usually defined, the Kd is the equilibrium constant for the complex coming apart. For orientation: koff means the first-order rate constant of dissociation. High values mean fast dissociation, low ones slow dissociation. For orientation: kon means a measure of how fast the partners come together. Low values mean slower complex formation, high ones faster complex formation.

B1: Recombinant human C5a (rhC5a) (natural protein, UniProt P01031 678-751, looked up)
chain: TLQKKIEEIAAKYKHSVVKKCCYDGACVNNDETCEQRAARISLGPRCIKAFTECCVVASQLRANISHKDMQLGR
notes: human complement C5a anaphylatoxin, residues 1-74 (core 1-67 and tail 68-74); also called full length rhC5a; substrate; not shown: His6, N-terminal, kept
In the experiment with ScpA_(S512A,E864A), B1 gave a Kd of 25 nM, a koff of 0.0064 s⁻¹ and a kon of 260000 M⁻¹ s⁻¹. In the experiment with ScpA_(S512A,D889A), this molecule gave a Kd of 27 nM, a koff of 0.007 s⁻¹ and a kon of 263000 M⁻¹ s⁻¹.

Source of the values: PMC9464890, “Exosite binding modulates the specificity of the immunomodulatory enzyme ScpA, a C5a inactivating bacterial protease” (Computational and Structural Biotechnology Journal, 2022).
